The experiment has as its target Xenopus Mad1 (Xenopus (endogenous in Xenopus egg extract)). Briefly: co-IP.

As to Xenopus Mad2 (natural protein), the percent of Mad2 removed by immunodepletion of Mad1 fell in the range of 20 to 40%.

These data come from publication PMC2192030.
